Ends that are not written are not given here.
Legend:
[1] = biological target: T1, recombinant HLA-A*03:01 MHC class I molecule (human); experiment: REVEAL MHC-peptide binding assay, stabilisation of ternary complex with recombinant MHC
T1 construct: Recombinant MHC molecule incubated with each synthetic peptide; the assay measures how far the peptide stabilises the ternary MHC-peptide complex
Procedure: (§1) Specifically, assessment was of a series of overlapping 9-mer peptides derived from the sequence […] (set forth in SEQ ID NO: 7), which contains a portion of the CD28 transmembrane domain and 4-1BB costimulatory domain spanning the junction between the domains (bond joining the two amino acids noted in underline). In addition, a series of overlapping 9-mer peptides of each of a number of different variants of this portion also were assessed, each variant containing a mutation or mutations in this region as described in Example 2.
(§2) The various 9-mer overlapping peptides were synthesized and their purity tested by MALDI-TOF Mass Spectrometry.

[2] = biological target: T2, recombinant HLA-A*02:01 MHC class I molecule (human); experiment: as above
T2 construct: Recombinant MHC molecule incubated with each synthetic peptide; the assay measures how far the peptide stabilises the ternary MHC-peptide complex; also called HLA-A2:01
Procedure: as §1, §2

[3] = biological target: T3, HLA-A*11:01 recombinant MHC class I molecule (human); experiment: REVEAL MHC-peptide binding assay, stabilisation of ternary MHC-peptide complex, recombinant HLA
T3 construct: Recombinant MHC molecule of a bought assay service
Procedure: as §1, §2

[4] = biological target: T4, HLA-B*08:01 recombinant MHC class I molecule (human); experiment: as above
T4 construct: Recombinant MHC molecule of a bought assay service
Procedure: as §1, §2

[5] = biological target: T5, HLA-B*08:01 (recombinant MHC class I molecule) (human); experiment: REVEAL MHC-peptide complex stabilisation assay, recombinant HLA-B*08:01
T5 construct: Recombinant MHC molecule of the ProImmune REVEAL assay; the test peptide is the third part of the ternary complex
Procedure: as §1, §2

[6] = biological target: T6, HLA-A*03:01 recombinant MHC class I molecule (human); experiment: REVEAL MHC-peptide complex stabilisation assay, recombinant HLA-A*03:01
T6 construct: Recombinant MHC molecule incubated with synthetic peptide
Procedure: as §1, §2

| Binder | In Vitro Score [1] | In Vitro Score [2] | In Vitro Score [3] | In Vitro Score [4] | further results |
| --- | --- | --- | --- | --- | --- |
| WVKRGRKKA (Variant 9-mer of the CD28 transmembrane / 4-1BB costimulatory junction region of a CAR) [WVKRGRKKA synthetic 9-mer peptide (overlapping reference peptide 7, L35A)] | 0.9 score, % of positive control peptide (=100) | 4.5 score, % of positive control peptide (=100) |  |  |  |
| WVQRGNKKS (not fully specified, Synthetic 9-mer; also called K29Q/L35S) |  |  | 5 % of positive control peptide (set at 100%) | 0 % of positive control peptide (set at 100%) |  |
| FWVKRGLKK (synthetic 9-mer; the entry already carries the change; also called R32L) [FWVKRGLKK (SEQ ID NO: 63)] |  |  |  |  | In Vitro Score [5]: 6.3 % of positive control peptide |
| WVQRGNKKS (not fully specified, Variant 9-mer of the CD28-4-1BB junction region) [WVQRGNKKS synthetic 9-mer peptide (overlapping reference peptide 7, K29Q/L35S)] | 0.7 score, % of positive control peptide (=100) | 1.2 score, % of positive control peptide (=100) |  |  |  |
| WVQRGNKKA (not fully specified, Variant 9-mer of the CD28-4-1BB junction region) [WVQRGNKKA synthetic 9-mer peptide (overlapping reference peptide 7, K29Q/L35A)] | 1.2 score, % of positive control peptide (=100) | 1.9 score, % of positive control peptide (=100) |  |  |  |
| IFWVQRGSK |  |  |  |  | In Vitro Score [6]: 0.3 % of positive control peptide |
| AFIIFWVRR (Variant 9-mer of the CD28-4-1BB junction region) [AFIIFWVRR synthetic 9-mer peptide (overlapping reference peptide 2, K29R)] |  | 1.4 score, % of positive control peptide (=100) |  |  |  |
| WVKRGRKKA (Synthetic 9-mer) |  |  | 3.1 % of positive control peptide (set at 100%) | 3.1 % of positive control peptide (set at 100%) |  |

Now from value to binder, other results behind:

| In Vitro Score [1] | In Vitro Score [2] | In Vitro Score [3] | In Vitro Score [4] | Binder | further results |
| --- | --- | --- | --- | --- | --- |
|  |  | 0.8 % of positive control peptide (set at 100%) | 0.7 % of positive control peptide (set at 100%) | WVQRGNKKA (not fully specified, Synthetic 9-mer; also called K29Q/L35A) |  |
|  |  | 1.5 % of positive control peptide (set at 100%) | 0.3 % of positive control peptide (set at 100%) | AFIIFWVRR (Synthetic 9-mer) |  |

Source: patent US20160158359A1 (JUNO THERAPEUTICS, published 2016)
